From patent US8084276B2, “Method for identifying a subject at risk of developing heart failure by determining the level of galectin-3 or thrombospondin-2” (Universiteit Maastricht, priority 2003, dated 2011) come the findings set out here.

One assay relates to Ren-2 rats. Description: Hemodynamics, hypertrophy and fibrosis in Ren-2 transgenic rats with and without ARB. The class given is in vivo, rat. The note with it: 0.05 mg/kg/day candesartan from 7-13 weeks of age. The protocol:
Homozygous Ren-2 rats were obtained from the Max-Delbrück-Zentrum für Molekulare Medizin, Berlin, Germany. 30 male Ren-2 rats on a Sprague Dawley (SD) background and 9 age-matched SD rats as controls were studied. Of 30 Ren-2 rats, 8 were sacrificed at 10-weeks of age and 8 were treated with 0.05 mg/kg/day of candesartan, an angiotensin II receptor type I blocker (ARB), from 7-13 weeks of age. Of the remaining 14 untreated Ren-2 rats, 6 were sacrificed at 13 weeks upon the development of clinical signs of heart failure and designated as HF-S rats. The remaining 8 Ren-2 rats were closely monitored and were sacrificed at 17 weeks when clinical signs of failure had not yet appeared. These rats were designated as HF-R rats. Hemodynamic parameters were determined before sacrifice and heart, lung and body weight were measured after the sacrifice. The procedure for care and treatment of animals was approved by the institutional animal care committee. Homozygous Ren-2 rats were obtained from the Max-Delbrück-Zentrum für Molekulare Medizin, Berlin, Germany. We studied 16 male Ren-2 rats and 8 age-matched controls from the non-transgenic background, Sprague Dawley (SD) rats. […] The remaining 4 Ren-2 rats were monitored and were sacrificed at 17 weeks when signs of clinical failure had not appeared. […] Heart, lung and body weight were measured after the sacrifice. […]

Another assay relates to cardiac fibroblasts. Description: Secreted collagen, [3H]proline incorporation assay. The class given is cell-based, rat. As for the experimental part: (§1) Rat cardiac fibroblasts were isolated from 2-day-old neonatal Sprague-Dawley rats, as described previously (Pokharel et al., Hypertension, 40: 155-161, 2002). Cells were cultured in Dulbecco's modification of eagle's medium (DMEM) supplemented with 10% foetal bovine serum (FBS), along with 1% L-glutamate, 50 U/mL penicillin, and 0.1 g/L streptomycin, and were incubated at 37° C. in a humidified 5% CO2 atmosphere. Twenty-four hours after seeding, cells were made quiescent by incubation with media containing 0.5% FBS for 24 hours. Cells were then treated with murine recombinant galectin-3 (control, 10 μg/ml and 30 μg/ml) for 24 hours. The number of dividing cells was determined by radio-labelled methyl-[^3H] thymidine incorporation (0.5 μCi per well) assay. Radioactivity was measured in the mixture of fibroblasts and scintillation liquid using LKB-Wallace beta counter (FSA Laboratory Supplies, Loughborough, UK).
Secreted collagen was measured using a [^3H]proline incorporation assay. Briefly, cardiac fibroblasts were seeded in 6-well plates at 90-100% confluency. During the final 24 hours of incubation, 15 μCi/ml of L-[^3H]proline was added. Incorporated [^3H] proline from the condition medium was precipitated with 10% trichloroacetic acid (TCA) and counted with the scintillation counter. Statistical Analyses

The next assay concerns Rat cardiac fibroblasts. Description: Cardiac fibroblast proliferation, methyl-[3H]thymidine incorporation. The note with it: 24 hours, control 145±4.8, p<0.01. The class given is cell-based. As for the experimental part: as §1

`CCOc1nc2cccc(C(=O)O)c2n1Cc1ccc(-c2ccccc2-c2nnn[nH]2)cc1` [candesartan] gave a dP/dtmax in the assay on Ren-2 rats (evaluated at 13 weeks) of 8400±202 mmHg/s. Besides, the “LV weight/body weight %” value in the assay on Ren-2 rats (evaluated in sacrificed animals at 13 weeks) is 2.52±0.36%.

B1: galectin-3: murine recombinant galectin-3 added exogenously to rat cardiac fibroblasts (protein, UniProt P16110 2-264, looked up)
Galectin-3: ADSFSLNDALAGSGNPNPQGYPGAWGNQPGAGGYPGAAYPGAYPGQAPPGAYPGQAPPGAYPGQAPPSAYPGPTAPGAYPGPTAPGAYPGQPAPGAFPGQPGAPGAYPQCSGGYPAAGPYGVPAGPLTVPYDLPLPGGVMPRMLITIMGTVKPNANRIVLDFRRGNDVAFHFNPRFNENNRRVIVCNTKQDNNWGKEERQSAFPFESGKPFKIQVLVEADHFKVAVNDAHLLQYNHRMKNLREISQLGISGDITLTSANHAMI
Turning to B1, the “proline incorporation (collagen production)” value in the assay on cardiac fibroblasts (galectin-3 at 10 μg/ml, not significant, p=0.13) is given as 992±72 cpm; with cardiac fibroblasts (galectin-3 at 30 μg/ml, control 707±52.8 cpm, p<0.05), 1066±56 cpm. Further, in the assay on cardiac fibroblasts (galectin-3 at 30 μg/ml vs control), the “increase in proline incorporation” value is recorded as “approximately 66%”. Further, the “cardiac fibroblast proliferation (thymidine incorporation)” value in the assay on Rat cardiac fibroblasts (galectin-3 at 10 μg/ml) worked out at 309±4.8 cpm; with Rat cardiac fibroblasts (galectin-3 at 30 μg/ml), 347±17.5 cpm.
